The DeepSol protein solubility set

Experiment: soluble on expression in E. coli; label from the status in PepcDB or PDB records

Sequence	soluble on expression in E. coli
MAHHHHHHMSTAKSFPMAQLSTRAQYSRMQREFVQLQRQENPRNINFTTSLKNRHKNRYLDILANEETIYPPVLKAVGAQPGRYPYINGNLIDLDLPHTFVACQAPVPQGVPDFLETLSEKKVDLVVMLTKLREGGVLKAERYWPEEEEDSLSFPESGHDAIKVTRDAEASYEVDAELDIVRRPLVIHVPGKPMHRVLQVQYVGWPDHGVPESAASFDELLSVIKNCVTTSPILVHCSAGIGRTGTLIGAYAALLHIERGILTDSTVYSIVAAMKQKRFGMVQRLEQYAVIYMTVLGRLGVDISGLVSTLNLKA	soluble
MEDTAEENNESIDDQPSTSTATDPNQTRETEKEKGDDEMFRLLQATDEILENKAKSMNLSSLNVRSILHHLIKYPSTIDVLLGIRENDDLPSVRNMRSRKKPDDSGASSTVNTPKKFGALRIEDRGPKSFLDLEYEEDDEYDDDYIEENDTSTRNKLNAGSEEDEENDDEEEIEDEGEDEDDEEQDELEEDGEHEITGSEACTSGQNDTMHALLFDETSEDVQNEEDYVLNMTLNDTRAESVAPIPTLDNVDDDGFYRDFVTGINRTEKDNDNLEVLDTEDDPDDEDYNVCADDGLNVEDWDETRQDKTTQIPRHELKALMIDTLLAEKEIPLNAFPEEAINGEEHRKSQKVKDAEVYERINTSISSSSESCSLLKDSLATFRPQELQQLNMQLEQHVQLLTQLVVTCHHDVNLSHVRNSSQLMMNELDDIRQQKIYPTVFDVRNLDAAIESCHDINAFDAVDESFLKYAENTEGYGGIALRPEAAVVLSRSNAIRYPALLPSRQPFFIETPIPFLSEEDLMLAVALLQFAHLPRRGEKEMIDRYTAIQQHCLPARSSYKIRTHLKSMRRSDKNPIHQIMQAAEKGVCKLVLPLKSWQESDTPICQWPPASQPGWYRRFQETFNVTEERKILRKHVSTMVLTPVKNKDRQDQEASEATFESGEEGEDDEFVNMGTAPDGRKIIMGREHIEDLVHQLIKQNEISPSKRRKNPTPMKLSTMIQLEEAEKRIADSQKNSCGGQTISALSNVSGDSNVDNNGTHEKELMPSTSSIDSLESINNQETSKFPRPLPMSDQPTLNTSCHITTTTCSVSYEDVDVGTLKKSYVEITASKYETNSNSCFSYPIPPTPGRRSPDDFDDYFMDLESNSLMWPQTPYAVTDENPQTPRGFSASESSEPIDFSSLGKATSLDTEEIVFQSTSCQRPMGYCSDFGEFSNSSSLPEEIPVPSHQRTPQESAIEDDSSMPGLDMVPLYEEDVEECIIEDIEEEEAPIKQGLVNSRPPLRFKKEVKAGITNLAPSRKRTRIEREAMGSVGLDDEQLHDKQKENIMRKVIEDVNQRLFMHTDTYQRFKEAITDENLTDFEKVTRTIIILANHPELLNLVLLNAPPEAVISDLQCDHNYQSYKVAIEMIMDIERYITAAKLKEPSLKGLFRYIQSFLEDKPNMTDEQATKRFYELFGQDRPLWKKLESRFWCLPYKARPRLENYEYIDLTGLETMSKREKRDWNSIPPRFETVDDIDQVMGSVYRASKNEPPSNLVVKCGEFCIRNDDETYTQLEITERLWTRKDDISLLTSYNEALKTIPNFTVSQMPSLISDLSFGEKSIIARLQYLLTELKSLD	soluble
MGSDKIHHHHHHMKYLPLGSTGLTVSECGFGCIPIIRLPQDEAVRVLRHAFDRGITFFDTANAYRDSEEKMGIAFAGIRHKLVIATKSLLRSAEGVTGHVENSLRKLGTDYLDLYQLHQIAQEKDWAEVTGPSGALEAAMAAKAAGKVRHVGVTSHNLEMALKLVRTGLFDTIQFPFNLIEEGAKDELLGAARDAGMAFICMKPFGGGVIDNAAVAFTYLRSHDGIFPIPGFESCAQVDEVLSFYERDNVVTEQDLAIMEQYRRELGKRFCRRCEYCQPCPQGVMITPAMGYPIVASRMSPAVAAEFCSKAMETVPLCTECGACIARCPYELPISDILKANYAMYRGHVAGSQGGFAGGKSS	not soluble
SADLLALLRDFTIHNREIKEDGDDIIFDNYAWNKSSKTNYIVWGTDKHGLIKEYYPLESIVYFLKNINLSHAQFVRQAAANGIFGIRLPDRQKLLDYLQGKITTCEAIDHSVPVDISQRRLVILQNNDKDPNDATGEPSSKRLCLEDGNSIDMANEGHSTDQQNEINLKESQRLAAKLQLPPGGKMTSDLYQNDPSKASTLIEHIPVDKIQMLRAKFRANHQQTIKPDESDVVPDKGKPLKSAIDAEEPIKPFVSKIQLGVTKNFVKEIMAREYTWRTRTTVLESHGKQFFDSVVLGTLKSVKLKEENLQHHTQRIGPHTPFPASNGHAGNVQQPAQAPTHYSRYDQERFTGAGQDTAGFKIDTMGTYHGKGLSSMMTDGSQANLTSRDPRANRQPAPRGLPPVSPGATPVDTGKGVTKANRAKSRVPIIIIPAAPTSLITMYNAKEILQDLRFEKTEDKKANGCRRDNDLLIQRLKSDGRTVPYRVIDQPNKLNREDWDRVVAVFVQGPAWQFKNWPIGSDPVEIFSLVKAFHLKYAHMPLHPDVKKWNVHVIQLDDHRHLDKANFQQIWDILDRHMV	soluble
YSQVQLPFNDLLYIETSSRSHRVVLYTEKDRMEFTATLGDILKQEPRLFQCHRSFLVNPLNIFKVDRIDRLVYFQNGTTCLVSRNKVRDIVSIVDKYQKDRKR	not soluble
GGSVKKGRRSRRCGQCPGCQVPEDCGVCTNCLDKPKFGGRNIKKQCCKMRKCQNLQWMPSKAYLQKQAKAVK	soluble
MPILEEPHESRTITLPPRPARLGGRCDVLVVGGGPAGFAAAVGAADAGADTVLVERYGFLGGNATAALVMPLMSFHNEHKQAAFTEAGDTSRLLPTDHGEGEPVVAGVLWQLLDRLTGRGGCLPPSPKTGYTVPFDPELFKFCLLEMADESGVRMLFHSFASGALPLDDGPGWRVVFETKSGPVVIDAGVVVDGTGDGDVAAACGAPYEVGRPEDGLVQPMTLMFRVADFARPDFAAYVREHPDQWRGVHGLWDLIEEARKNGELRLPREDILFFATPHPHEVAVNSTRVNRVLGTSVWDLTRAEYTARHQLAEIDRFLRTRVPGFEESYVVQSGTHVGVRESRRVVGDHRLTGHDILAARTFPDVIAHGAYPVDIHNPRGSGTVLKRVPRGSFYDIPLRCLLPRDTDRLLVAGRCISGTHVAHSSYRVMPIAMATGHAAGVCAALTVRHGSGPRGLPYRLVQRELLRQGARLRTEPHLEHHHHHH	not soluble
MRSRPTEGNLLVSIGIPFLNPGPYLDLAVRSVFAQTYLNWELILVDDGSTDGSYERAVAIQDPRVRVLRDGQNKGLPARLNEIVRLAKGELVARMDADDAMHPLRLEKQVGFLQANPELDGVTTGAYLIDAEDRPIALLPGRQPSAQEVLARGGFLHPSLLARKSWFEAHPYSLDYPRAEDRELFVRTFKTSRLHVLSEPLYFYRWFGVPRGKTLRIGYRSERKVMWKYGPNLVGWGPSLRLIALSFGKELLTWFLEWTHLEKGFQTRRAFQPLLEMDQREALRTLKVIRETCVPGWDLEHHHHHH	not soluble
MEDKPTILIMGGSLGLGNIEDIVEMVCHICDESYQIIVVTGKNKTLKKSLEERNFGRKVVVFGFISFIDKLMAISDILITKPGGLTCAEALSCKLPMILISPIPGQEERNTFYLINNGAAAYVKNIESFDIVFNQIINNPQRLEHMKLACSFLAKPLEHHHHHH	not soluble
MHHHHHHSSGRENLYFQGTLSALAVDLGGTNLRVAIVSMKGEIVKKYTQFNPKTYEERINLILQMCVEAAAEAVKLNCRILGVGISTGGRVNPREGIVLHSTKLIQEWNSVDLRTPLSDTLHLPVWVDNDGNCAALAERKFGQGKGLENFVTLITGTGIGGGIIHQHELIHGSSFCAAELGHLVVSLDGPDCSCGSHGCIEAYASGMALQREAKKLHDEDLLLVEGMSVPKDEAVGALHLIQAAKLGNAKAQSILRTAGTALGLGVVNILHTMNPSLVILSGVLASHYIHIVKDVIRQQALSSVQDVDVVVSDLVDPALLGAASMVLDYTTRR	soluble
MSLAKTIAYLRVSTSQQDLKNQKFEILDYAQKNGLSIDDFVEVEISSRKSVEERKIDYLVSMLSQGDRVIVSELSRIGRSTVEVLNIINELASKKVFLIAIKQNLNINGSENLQAKVMVTMFSLFAELERDLISDRTKRALEARKAAGVKLGRPKGATGVSKLDGMEGQITELLRKQVSLSSIAKIFSVSRGTVYSFIATRGLTAEGHHHHHH	not soluble
MAKTITKDSFFHSRLQQFVANSLFPAGAGDWYKNKGYGKKGEVDDEAPFRDFVEKQKTDKKSHYYKEFQGLDLSLKKVKTKLVSGESCQLEVMKCQPESNEPKKPGTGKHIVYFPGANTYYQACFRDISTACKETGATVHAFNFPGTGLSSGKVREANDLINAGISVVSSLIKQGVHPDDIILQGDCYGASIALEVKKQLEDQADIKVRAIMNNVFKSFKAAVCDMITQSPWLPNILKSIVKRLLEFTGWHVTPGKKYKHADPYQCHIQHLGDQTLESSTLSGKVSKYHHEIQTGQTKSQKRAPITDTCPEEYRKDRDELDRKHYVRVKESAKERLASKFGVDKFGRVNAHFADLCELEMLDGQSVYQGFVNDYIARSNAYIEKHPQKGIKEVQDDLRKLHYLQPADSIEITEDEAQDFNTVVDLITEEQQLRHDRFNDNTIGKSISM	not soluble
ADGNNIKAPIETAVKPPHRTEDNIRDEARRNRSNAVNPFSAKYVPFNAAPGSTESYSLDEIVYRSRSGGLLDVEHDMEALKRFDGAYWRDLFDSRVGKSTWPYGSGVWSKKEWVLPEIDDDDIVSAFEGNSNLFWAERFGKQFLGMNDLWVKHCGISHTGSFKDLGMTVLVSQVNRLRKMKRPVVGVGCASTGDTSAALSAYCASAGIPSIVFLPANKISMAQLVQPIANGAFVLSIDTDFDGCMKLIREITAELPIYLANSLNSLRLEGQKTAAIEILQQFDWQVPDWVIVPGGNLGNIYAFYKGFKMCQELGLVDRIPRMVCAQAANANPLYLHYKSGWKDFKPMTASTTFASAIQIGDPVSIDRAVYALKKCNGIVEEATEEELMDAMAQADSTGMFICPHTGVALTALFKLRNQGVIAPTDRTVVVSTAHGLKFTQSKIDYHSNAIPDMACRFSNPPVDVKADFGAVMDVLKSYLGSNTLTS	soluble
MRLIAAGEAQNAQQADEDVVQRNIQANRGTNIVRFTAMNDVAGFKQNSARGDQNEDRADRQMQGRQLQEDISNHTNQHHHNTRHQHTAKERHIFAGGQHIRRAAEEHQRRSAQCHSDYVTHSSRQVGVQNWSEDISQKTGKGECGDNPGRLIRRFVGQEHQTIHTHQRQNQTRRWQHQHRTGSCGNRRKGQRQAQQKIGITQHLMGAKQRCTVM	soluble
MNRLKSDQKTKLRQFVQWTQVTEAVSLNFLAKANWNIEYAMTLYFDNPNLFAGSTPQPSVDRSNIERLFNQYVDPKDKVGEKRMGPHGINRLLTDLGYEATDRRVLVLAWKFTAQTQCEFSLDEWVKGMTALQADTVQNLRQRIDSINSGLESDKAKFHELYLFAFNYAKSAACRNLDLETAICCWDVLFGQRSTIMTQWIDFLWAQENAAASRLAQNVGASNAKQFKSVWISRDTWNLFWDFILLSKPDLSDYDDEGAWPVLIDQFVDYCRENLNYPKPGNASNDQQMETPSYY	not soluble
MAQHGALETLKDLAEKEVDDAARLLGEMRRGCQQAEEQLKMLIDYQNEYRSNLNTDMGNGIASNRWINYQQFIQTLEKAIEQHRLQLTQWTQKVDLALKSWREKKQRLQAWQTLQDRQTAAALLAENRMDQKKMDEFAQRAAMRKPE	not soluble
MISANKQFDIQLGDEIGKDFFTQDTVVCAFRNKEKTTDFVFTSGPIILICDGTTRRKMIKRRFKMEFDIKKVFFHSFIVTRNAEKLATENCGGPDTKHRDYLVVCGEHKLQFISLPDYHFYHYEIPFKLRNVFSCSTSLLVERFYDSSSEQTFHHHDTFHLYSLSGPFGELLPVIYKTSGYHPQWKFCWQSHRDEAGLVDAQQNYVVVYDQKEKTHRIYMARETQEQEVHAAIRYVEALRRPSDSTMFASSLAPNSAGRTTHFDPTLNSPAENVLSEVISSEIDSRSPFTPHLRSGFGHSTPNNPNAPGYPATLPTPNFEGNFFF	not soluble
SDERHKTDIAPISDKVLDAWEKVKFYQYKFKDAVDEKGEEARYHFGVIAQQIVKVFEDEGLSAFDYGLVGYDEWEATEDEYDSEGNLVEKGREAGNIYSIRPTECQWLEMACMRRKLERLSLEHHHHHH	soluble
